Test results as given in the supplement of paper PMC7877785.
± gives the uncertainty stated by the source.

Assay: self-splicing fitness, log relative to wild type (ln ratio); higher = more splicing; Tetrahymena group I intron in knt gene, E. coli kanamycin selection, DiMSum; sequences stand for … in CUCUCU…GGAGGGAAAAGUUAUCAGGCAUGCACCUGGUAGCUAGUCUUUAAACCAAUAGAUUGCAUCGGUUUAAAAGGCAAGACCGUCAAAUUGCGGGAAAGGGGUCAACAGCCGUUCAGUACCAAGUCUCAGGGGAAACUUUGAGAUGGCCUUGCAAAGGGUAUGGUAAUAAGCUGACGGACAUGGUCCUAACCACGCAGCCAAGUCCUAAGUCAACAGAUCUUCUGUUGAUAUGGAUGCAGUUCACAGACUAAAUGUCGGUCGGGGAAGAUGUAUUCUUCUCAUAAGAUAUAGUCGGACCUCUCCUUAAUGGGAGCUAGCGGAUGAAGUGAUGCAACACUGGAGCCGCUGGGAACUAAUUUGUAUGCGAAAGUAUAUUGAUUAGUUUUGGAGUACUCGUGGUCG
In short: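 Fitness was computed with DiMSum as the error-weighted combination of replicate fold changes, kanamycin versus none, each normalised to wild type. The library randomised all eight intron nucleotides of the P1ex region, with the intron placed in the knt kanamycin-resistance gene on pET-22b(+) in E. coli BL21(DE3). Six replicate transformations were grown overnight at 37°C or 30°C on LB agar with or without 25 μg/mL kanamycin, plus 100 μg/mL carbenicillin, 50 μM IPTG and 0.2% rhamnose. Pooled colonies were amplicon-sequenced on an Illumina HiSeq 2500.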

Sequence	self-splicing fitness (ln) (30 °C)	self-splicing fitness (ln) (37 °C)
AAGUAGCAAUAUUACGCUGA	-1.36 ± 0.15	-0.457 ± 0.14
AAGUAGCAAUAUUACGCUUG	-1.6 ± 0.097	-0.42 ± 0.1
AAGUAGCAAUAUUACGGGUC	-3.44 ± 0.16	-2.84 ± 0.19
AAGUAGCAAUAUUACGUACU	-0.863 ± 0.19	-0.429 ± 0.19
AAGUAGCAAUAUUACGUCCU	-0.128 ± 0.11	0.294 ± 0.14
AAGUAGCAAUAUUACGUGCU	-1.29 ± 0.08	-0.982 ± 0.1
AAGUAGCAAUAUUACGUGGU	-3.68 ± 0.18	-1.93 ± 0.15
AAGUAGCAAUAUUACGUUAU	-1.93 ± 0.13	-0.642 ± 0.11
AAGUAGCAAUAUUACGUUCA	-0.86 ± 0.081	0.409 ± 0.096
AAUAAGCAAUAUUACGACCA	-0.614 ± 0.18	0.141 ± 0.29
AAUAAGCAAUAUUACGAGAA	-3.24 ± 0.38	-1.55 ± 0.27
AAUAAGCAAUAUUACGAGUG	-1.05 ± 0.07	-0.56 ± 0.09
AAUAAGCAAUAUUACGAUAA	-1.9 ± 0.19	-1.03 ± 0.18
AAUAAGCAAUAUUACGAUUA	-0.789 ± 0.12	0.438 ± 0.14
AAUAAGCAAUAUUACGCGAG	-1.14 ± 0.097	-0.557 ± 0.1
AAUAAGCAAUAUUACGCUUU	-3.49 ± 0.21	-3.26 ± 0.23
AAUAAGCAAUAUUACGGAGG	-3.19 ± 0.18	-1.93 ± 0.2
AAUAAGCAAUAUUACGGAUA	-2.35 ± 0.14	-1.68 ± 0.15
AAUAAGCAAUAUUACGGCUU	-0.403 ± 0.12	-0.12 ± 0.14
AAUAAGCAAUAUUACGGUCG	-1.03 ± 0.098	-0.232 ± 0.12
AAUAAGCAAUAUUACGUGGU	-3.77 ± 0.17	-2.63 ± 0.14
AAUAAGCAAUAUUACGUUCA	-0.963 ± 0.084	-0.348 ± 0.12
AAUCAGCAAUAUUACGAAAC	-1.97 ± 0.19	-0.858 ± 0.16
AAUCAGCAAUAUUACGACAC	-0.56 ± 0.12	-1.46 ± 0.15
AAUCAGCAAUAUUACGACCC	0.168 ± 0.15	-0.615 ± 0.16
AAUCAGCAAUAUUACGACUA	0.113 ± 0.14	-0.783 ± 0.12

Sequence	self-splicing fitness (ln) (30 °C)	self-splicing fitness (ln) (37 °C)
AAUCAGCAAUAUUACGAGAG	-1.82 ± 0.15	-1.13 ± 0.13
AAUCAGCAAUAUUACGAGUC	-2.05 ± 0.11	-1.21 ± 0.11
AAUCAGCAAUAUUACGAUCU	0.0008 ± 0.059	0.914 ± 0.088
AAUCAGCAAUAUUACGAUGC	-0.408 ± 0.076	0.219 ± 0.096
AAUCAGCAAUAUUACGCAAG	-0.971 ± 0.068	-0.72 ± 0.087
AAUCAGCAAUAUUACGCCCG	-0.416 ± 0.14	-0.489 ± 0.16
AAUCAGCAAUAUUACGCCUC	-1.12 ± 0.13	-0.226 ± 0.17
AAUCAGCAAUAUUACGCGCU	-1.16 ± 0.075	-0.732 ± 0.084
AAUCAGCAAUAUUACGCUCG	-0.0659 ± 0.091	-0.114 ± 0.12
AAUCAGCAAUAUUACGGAUA	-0.0268 ± 0.069	0.49 ± 0.086
AAUCAGCAAUAUUACGGAUG	-0.144 ± 0.066	0.153 ± 0.085
AAUCAGCAAUAUUACGGCAA	-0.417 ± 0.074	0.747 ± 0.091
AAUCAGCAAUAUUACGGCUC	-0.84 ± 0.082	0.535 ± 0.097
AAUCAGCAAUAUUACGGGAG	-1.48 ± 0.054	-0.88 ± 0.068
AAUCAGCAAUAUUACGGGAU	-1.45 ± 0.08	-1.34 ± 0.087
AAUCAGCAAUAUUACGGUCC	-0.242 ± 0.085	-0.118 ± 0.1
AAUCAGCAAUAUUACGUAGA	-0.378 ± 0.071	-0.124 ± 0.089
AAUCAGCAAUAUUACGUAUG	-0.407 ± 0.079	0.138 ± 0.11
AAUCAGCAAUAUUACGUCUC	-0.509 ± 0.091	-0.314 ± 0.093
AAUCAGCAAUAUUACGUUGA	-0.828 ± 0.086	-0.22 ± 0.1
AAUGAGCAAUAUUACGAACG	-2.46 ± 0.31	-1.74 ± 0.3
AAUGAGCAAUAUUACGAAUC		-1.74 ± 0.3
AAUGAGCAAUAUUACGACUG	-3.77 ± 0.28	-0.811 ± 0.19
AAUGAGCAAUAUUACGAGUU	-3.21 ± 0.28	-1.8 ± 0.31
AAUGAGCAAUAUUACGAUCU	-0.572 ± 0.074	-0.195 ± 0.1
AAUGAGCAAUAUUACGCAAG	-3.81 ± 0.27	-2.45 ± 0.38

Sequence	self-splicing fitness (ln) (30 °C)	self-splicing fitness (ln) (37 °C)
AAUGAGCAAUAUUACGCGAA	-3.05 ± 0.18	-2.7 ± 0.22
AAUGAGCAAUAUUACGCGUG	-2.11 ± 0.11	-0.949 ± 0.1
AAUGAGCAAUAUUACGGACA	-2.93 ± 0.45	
AAUGAGCAAUAUUACGGCAC	-2.9 ± 0.28	-1.27 ± 0.32
AAUGAGCAAUAUUACGGCUC	-1.82 ± 0.23	-2.03 ± 0.38
AAUGAGCAAUAUUACGGCUU	-1.85 ± 0.19	-1.19 ± 0.18
AAUGAGCAAUAUUACGGGAA	-2.61 ± 0.26	-3.04 ± 0.33
AAUGAGCAAUAUUACGGGAC	-2.96 ± 0.26	-1.36 ± 0.25
AAUGAGCAAUAUUACGGGGG	-4.09 ± 0.42	-1.32 ± 0.25
AAUGAGCAAUAUUACGGUUU	-2.13 ± 0.097	-0.543 ± 0.11
AAUGAGCAAUAUUACGUAGU	-3.83 ± 0.22	-2.22 ± 0.21
AAUGAGCAAUAUUACGUCUG	-2.92 ± 0.15	-3 ± 0.21
AAUGAGCAAUAUUACGUGAG	-3.5 ± 0.23	-1.78 ± 0.14
AAUGAGCAAUAUUACGUGCA	-2.95 ± 0.22	-0.932 ± 0.14
AAUGAGCAAUAUUACGUGCU	-3.93 ± 0.36	-2.44 ± 0.25
AAUUAGCAAUAUUACGACGC	-1.08 ± 0.14	-0.792 ± 0.13
AAUUAGCAAUAUUACGAGAA	-2.65 ± 0.48	-1.05 ± 0.28
AAUUAGCAAUAUUACGAGAU	-2.7 ± 0.17	-2.16 ± 0.17
AAUUAGCAAUAUUACGAGCG	-1.1 ± 0.096	-0.749 ± 0.099
AAUUAGCAAUAUUACGAGCU	-1.02 ± 0.12	-0.169 ± 0.15
AAUUAGCAAUAUUACGAUCC	-0.705 ± 0.18	-0.148 ± 0.26
AAUUAGCAAUAUUACGAUCU	0.226 ± 0.09	0.704 ± 0.11
AAUUAGCAAUAUUACGCCUA	0.234 ± 0.13	0.297 ± 0.15
AAUUAGCAAUAUUACGCGGC	-2.28 ± 0.39	-1.32 ± 0.3
